Assay results as given in patent US12104181B2, “Compositions and methods for treating viral infections targeting TRIM7” (THE BOARD OF REGENTS OF THE UNIVERSITY OF TEXAS SYSTEM, priority 2021, dated 2024).

Test system: coxsackievirus B3 (CVB3-GFP)
Format: cell-based
Conditions: HeLa cells, replicate R1; for Percent Infected R1: GFP-positive cells within RFP-positive gate

B1: MARCH1: human RING type E3 ligase expressed from lentiviral vector (protein, UniProt Q8TCQ1 1-289, looked up)
E3 ubiquitin-protein ligase …: MLGWCEAIARNPHRIPNNTRTPEISGDLADASQTSTLNEKSPGRSASRSSNISKASSPTTGTAPRSQSRLSVCPSTQDICRICHCEGDEESPLITPCRCTGTLRFVHQSCLHQWIKSSDTRCCELCKYDFIMETKLKPLRKWEKLQMTTSERRKIFCSVTFHVIAITCVVWSLYVLIDRTAEEIKQGNDNGVLEWPFWTKLVVVAIGFTGGLVFMYVQCKVYVQLWRRLKAYNRVIFVQNCPDTAKKLEKNFSCNVNTDIKDAVVVPVPQTGANSLPSAEGGPPEVVSV
- Percent Infected R1: 97.7%
- Z score R1: 0.12

B2: MUL1: human RING type E3 ligase expressed from lentiviral vector (protein, UniProt Q969V5 1-352, looked up)
Mitochondrial ubiquitin …: MESGGRPSLCQFILLGTTSVVTAALYSVYRQKARVSQELKGAKKVHLGEDLKSILSEAPGKCVPYAVIEGAVRSVKETLNSQFVENCKGVIQRLTLQEHKMVWNRTTHLWNDCSKIIHQRTNTVPFDLVPHEDGVDVAVRVLKPLDSVDLGLETVYEKFHPSIQSFTDVIGHYISGERPKGIQETEEMLKVGATLTGVGELVLDNNSVRLQPPKQGMQYYLSSQDFDSLLQRQESSVRLWKVLALVFGFATCATLFFILRKQYLQRQERLRLKQMQEEFQEHEAQLLSRAKPEDRESLKSACVVCLSSFKSCVFLECGHVCSCTECYRALPEPKKCPICRQAITRVIPLYNS
modifications: lentiviral expression
notes: human RING type E3 ligase expressed from lentiviral vector
- Percent Infected R1: 80.1%
- Z score R1: −0.11

B3: RNFT1: human RING type E3 ligase expressed from lentiviral vector (protein, UniProt Q5M7Z0 1-435, looked up)
E3 ubiquitin-protein ligase …: MPLFLLSLPTPPSASGHERRQRPEAKTSGSEKKYLRAMQANRSQLHSPPGTGSSEDASTPQCVHTRLTGEGSCPHSGDVHIQINSIPKECAENASSRNIRSGVHSCAHGCVHSRLRGHSHSEARLTDDTAAESGDHGSSSFSEFRYLFKWLQKSLPYILILSVKLVMQHITGISLGIGLLTTFMYANKSIVNQVFLRERSSKIQCAWLLVFLAGSSVLLYYTFHSQSLYYSLIFLNPTLDHLSFWEVFWIVGITDFILKFFFMGLKCLILLVPSFIMPFKSKGYWYMLLEELCQYYRTFVPIPVWFRYLISYGEFGNVTRWSLGILLALLYLILKLLEFFGHLRTFRQVLRIFFTQPSYGVAASKRQCSDVDDICSICQAEFQKPILLICQHIFCEECMTLWFNREKTCPLCRTVISDHINKWKDGATSSHLQIY
modifications: lentiviral expression
notes: as for B2
- Percent Infected R1: 95.2%
- Z score R1: 0.08

B4: RI NG1: human RING type E3 ligase expressed from lentiviral vector (protein, UniProt Q06587 1-406, looked up)
E3 ubiquitin-protein ligase …: MTTPANAQNASKTWELSLYELHRTPQEAIMDGTEIAVSPRSLHSELMCPICLDMLKNTMTTKECLHRFCSDCIVTALRSGNKECPTCRKKLVSKRSLRPDPNFDALISKIYPSREEYEAHQDRVLIRLSRLHNQQALSSSIEEGLRMQAMHRAQRVRRPIPGSDQTTTMSGGEGEPGEGEGDGEDVSSDSAPDSAPGPAPKRPRGGGAGGSSVGTGGGGTGGVGGGAGSEDSGDRGGTLGGGTLGPPSPPGAPSPPEPGGEIELVFRPHPLLVEKGEYCQTRYVKTTGNATVDHLSKYLALRIALERRQQQEAGEPGGPGGGASDTGGPDGCGGEGGGAGGGDGPEEPALPSLEGVSEKQYTIYIAPGGGAFTTLNGSLTLELVNEKFWKVSRPLELCYAPTKDPK
- Percent Infected R1: 92.9%
- Z score R1: 0.05

B5: RNF121: human RING type E3 ligase expressed from lentiviral vector (protein, UniProt Q9H920 2-327, looked up)
E3 ubiquitin ligase RNF121: AAVVEVEVGGGAAGERELDEVDMSDLSPEEQWRVEHARMHAKHRGHEAMHAEMVLILIATLVVAQLLLVQWKQRHPRSYNMVTLFQMWVVPLYFTVKLHWWRFLVIWILFSAVTAFVTFRATRKPLVQTTPRLVYKWFLLIYKISYATGIVGYMAVMFTLFGLNLLFKIKPEDAMDFGISLLFYGLYYGVLERDFAEMCADYMASTIGFYSESGMPTKHLSDSVCAVCGQQIFVDVSEEGIIENTYRLSCNHVFHEFCIRGWCIVGKKQTCPYCKEKVDLKRMFSNPWERPHVMYGQLLDWLRYLVAWQPVIIGVVQGINYILGLE
- Percent Infected R1: 84.1%
- Z score R1: −0.06

B6: RNF8: human RING type E3 ligase expressed from lentiviral vector (protein, UniProt O76064 1-485, looked up)
E3 ubiquitin-protein ligase …: MGEPGFFVTGDRAGGRSWCLRRVGMSAGWLLLEDGCEVTVGRGFGVTYQLVSKICPLMISRNHCVLKQNPEGQWTIMDNKSLNGVWLNRARLEPLRVYSIHQGDYIQLGVPLENKENAEYEYEVTEEDWETIYPCLSPKNDQMIEKNKELRTKRKFSLDELAGPGAEGPSNLKSKINKVSCESGQPVKSQGKGEVASTPSDNLDPKLTALEPSKTTGAPIYPGFPKVTEVHHEQKASNSSASQRSLQMFKVTMSRILRLKIQMQEKHEAVMNVKKQTQKGNSKKVVQMEQELQDLQSQLCAEQAQQQARVEQLEKTFQEEEQHLQGLEIAQGEKDLKQQLAQALQEHWALMEELNRSKKDFEAIIQAKNKELEQTKEEKEKMQAQKEEVLSHMNDVLENELQCIICSEYFIEAVTLNCAHSFCSYCINEWMKRKIECPICRKDIKSKTYSLVLDNCINKMVNNLSSEVKERRIVLIRERKAKRLF
modifications: lentiviral expression
notes: as for B2
- Percent Infected R1: 82.8%
- Z score R1: −0.07

B7: RNF150: human RING type E3 ligase expressed from lentiviral vector (protein, UniProt Q9ULK6 35-438, looked up)
RING finger protein 150: EKEEWYTAFVNITYAEPAPDPGAGAAGGGGAELHTEKTECGRYGEHSPKQDARGEVVMASSAHDRLACDPNTKFAAPTRGKNWIALIPKGNCTYRDKIRNAFLQNASAVVIFNVGSNTNETITMPHAGVEDIVAIMIPEPKGKEIVSLLERNITVTMYITIGTRNLQKYVSRTSVVFVSISFIVLMIISLAWLVFYYIQRFRYANARDRNQRRLGDAAKKAISKLQIRTIKKGDKETESDFDNCAVCIEGYKPNDVVRILPCRHLFHKSCVDPWLLDHRTCPMCKMNILKALGIPPNADCMDDLPTDFEGSLGGPPTNQITGASDTTVNESSVTLDPAVRTVGALQVVQDTDPIPQEGDVIFTTNSEQEPAVSSDSDISLIMAMEVGLSDVELSTDQDCEEVKS
- Percent Infected R1: 91.1%
- Z score R1: 0.03

B8: RNF144A: human RING type E3 ligase expressed from lentiviral vector (protein, UniProt P50876 1-292, looked up)
E3 ubiquitin-protein ligase …: MTTTRYRPTWDLALDPLVSCKLCLGEYPVEQMTTIAQCQCIFCTLCLKQYVELLIKEGLETAISCPDAACPKQGHLQENEIECMVAAEIMQRYKKLQFEREVLFDPCRTWCPASTCQAVCQLQDVGLQTPQPVQCKACRMEFCSTCKASWHPGQGCPETMPITFLPGETSAAFKMEEDDAPIKRCPKCKVYIERDEGCAQMMCKNCKHAFCWYCLESLDDDFLLIHYDKGPCRNKLGHSRASVIWHRTQVVGIFAGFGLLLLVASPFLLLATPFVLCCKCKCSKGDDDPLPT
- Percent Infected R1: 97.7%
- Z score R1: 0.12

B9: RNF220: human RING type E3 ligase expressed from lentiviral vector (protein, UniProt Q5VTB9 1-566, looked up)
E3 ubiquitin-protein ligase …: MDLHRAAFKMENSSYLPNPLASPALMVLASTAEASRDASIPCQQPRPFGVPVSVDKDVHIPFTNGSYTFASMYHRQGGVPGTFANRDFPPSLLHLHPQFAPPNLDCTPISMLNHSGVGAFRPFASTEDRESYQSAFTPAKRLKNCHDTESPHLRFSDADGKEYDFGTQLPSSSPGSLKVDDTGKKIFAVSGLISDREASSSPEDRNDRCKKKAAALFDSQAPICPICQVLLRPSELQEHMEQELEQLAQLPSSKNSLLKDAMAPGTPKSLLLSASIKREGESPTASPHSSATDDLHHSDRYQTFLRVRANRQTRLNARIGKMKRRKQDEGQREGSCMAEDDAVDIEHENNNRFEEYEWCGQKRIRATTLLEGGFRGSGFIMCSGKENPDSDADLDVDGDDTLEYGKPQYTEADVIPCTGEEPGEAKEREALRGAVLNGGPPSTRITPEFSKWASDEMPSTSNGESSKQEAMQKTCKNSDIEKITEDSAVTTFEALKARVRELERQLSRGDRYKCLICMDSYSMPLTSIQCWHVHCEECWLRTLGAKKLCPQCNTITAPGDLRRIYL
- Percent Infected R1: 96.6%
- Z score R1: 0.1

B10: RFPL2: human RING type E3 ligase expressed from lentiviral vector (protein, UniProt O75678 1-378, looked up)
Ret finger protein-like 2: MEVAELGFPETAVSQSRICLCAVLCGHWDFADMMVIRSLSLIRLEGVEGRDPVGGGNLTNKRPSCAPSPQDLSAQWKQLEDRGASSRRVDMAALFQEASSCPVCSDYLEKPMSLECGCAVCLKCINSLQKEPHGEDLLCCCSSMVSRKNKIRRNRQLERLASHIKELEPKLKKILQMNPRMRKFQVDMTLDANTANNFLLISDDLRSVRSGRIRQNRQDLAERFDVSVCILGSPRFTCGRHCWEVDVGTSTEWDLGVCRESVHRKGRIQLTTELGFWTVSLRDGGRLSATTVPLTFLFVDRKLQRVGIFLDMGMQNVSFFDAESGSHVYTFRSVSAEEPLRPFLAPSVPPNGDQGVLSICPLMNSGTTDAPVRPGEAK
modifications: lentiviral expression
notes: as for B2
- Percent Infected R1: 93.8%
- Z score R1: 0.07

B11: MARCH2: human RING type E3 ligase expressed from lentiviral vector (protein, UniProt Q9P0N8 1-246, looked up)
E3 ubiquitin-protein ligase …: MTTGDCCHLPGSLCDCSGSPAFSKVVEATGLGPPQYVAQVTSRDGRLLSTVIRALDTPSDGPFCRICHEGANGECLLSPCGCTGTLGAVHKSCLEKWLSSSNTSYCELCHTEFAVEKRPRPLTEWLKDPGPRTEKRTLCCDMVCFLFITPLAAISGWLCLRGAQDHLRLHSQLEAVGLIALTIALFTIYVLWTLVSFRYHCQLYSEWRKTNQKVRLKIREADSPEGPQHSPLAAGLLKKVAEETPV
- Percent Infected R1: 92.4%
- Z score R1: 0.05

B12: RNF14: human RING type E3 ligase expressed from lentiviral vector (protein, UniProt Q9UBS8 1-474, looked up)
E3 ubiquitin-protein ligase …: MSSEDREAQEDELLALASIYDGDEFRKAESVQGGETRIYLDLPQNFKIFVSGNSNECLQNSGFEYTICFLPPLVLNFELPPDYPSSSPPSFTLSGKWLSPTQLSALCKHLDNLWEEHRGSVVLFAWMQFLKEETLAYLNIVSPFELKIGSQKKVQRRTAQASPNTELDFGGAAGSDVDQEEIVDERAVQDVESLSNLIQEILDFDQAQQIKCFNSKLFLCSICFCEKLGSECMYFLECRHVYCKACLKDYFEIQIRDGQVQCLNCPEPKCPSVATPGQVKELVEAELFARYDRLLLQSSLDLMADVVYCPRPCCQLPVMQEPGCTMGICSSCNFAFCTLCRLTYHGVSPCKVTAEKLMDLRNEYLQADEANKRLLDQRYGKRVIQKALEEMESKEWLEKNSKSCPCCGTPIEKLDGCNKMTCTGCMQYFCWICMGSLSRANPYKHFNDPGSPCFNRLFYAVDVDDDIWEDEVED
modifications: lentiviral expression
notes: as for B2
- Percent Infected R1: 95.5%
- Z score R1: 0.09
